Data published in patent US20230143604A1, “QW DOSING OF GIP RECEPTOR AGONIST PEPTIDE COMPOUNDS AND USES THEREOF” (TAKEDA PHARMACEUTICAL COMPANY LIMITED, priority 2020, published 2023).
Starred links: 1 amine or outer side, 2 acyl side, 3 side chain; linkers in the order of their positions; H or OH if unused. Non-standard residues stand in square brackets, D forms with d. Groups on a side chain read outwards from the residue. No end group written: not given here. *: point of attachment. C20 diacid = O=C(O)CCCCCCCCCCCCCCCCCCC(=O)*; C18 diacid = O=C(O)CCCCCCCCCCCCCCCCC(=O)*; γGlu = O=C(O)[C@H](CCC(=O)[*:2])N[*:1]; NMeY = CN[C@@H](Cc1ccc(O)cc1)C(=O)O; AEEA = NCCOCCOCC(=O)O; Aib = CC(C)(N)C(=O)O

T1: full-length human GIPR with an N-terminal FLAG tag, overexpressed on HEK-293T cells (human, UniProt P48546 22-466)
T1 sequence (looked up): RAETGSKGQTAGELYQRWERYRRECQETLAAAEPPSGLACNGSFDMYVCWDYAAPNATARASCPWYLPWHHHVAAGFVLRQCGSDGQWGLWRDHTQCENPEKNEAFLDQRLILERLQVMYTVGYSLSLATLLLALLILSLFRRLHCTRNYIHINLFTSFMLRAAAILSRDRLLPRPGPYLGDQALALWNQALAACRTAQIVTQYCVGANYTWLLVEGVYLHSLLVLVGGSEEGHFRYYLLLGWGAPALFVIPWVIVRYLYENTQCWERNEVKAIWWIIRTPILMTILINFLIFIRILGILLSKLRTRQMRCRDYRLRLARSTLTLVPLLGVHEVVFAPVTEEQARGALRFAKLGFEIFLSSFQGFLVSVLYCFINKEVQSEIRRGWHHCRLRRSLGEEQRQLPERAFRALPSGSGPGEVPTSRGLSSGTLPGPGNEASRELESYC

B1: Compound No. 162 (peptide)
peptide: H-Y[Aib]EGTFISDYSIALDK[Aib]K([AEEA-AEEA-γGlu-C18 diacid])QADFVEWLLAQRG-OH
SMILES: CC[C@H](C)[C@H](NC(=O)[C@H](CO)NC(=O)[C@H](Cc1ccc(O)cc1)NC(=O)[C@H](CC(=O)O)NC(=O)[C@H](CO)NC(=O)[C@@H](NC(=O)[C@H](Cc1ccccc1)NC(=O)[C@@H](NC(=O)CNC(=O)[C@H](CCC(=O)O)NC(=O)C(C)(C)NC(=O)[C@@H](N)Cc1ccc(O)cc1)[C@@H](C)O)[C@@H](C)CC)C(=O)N[C@@H](C)C(=O)N[C@@H](CC(C)C)C(=O)N[C@@H](CC(=O)O)C(=O)N[C@@H](CCCCN)C(=O)NC(C)(C)C(=O)N[C@@H](CCCCNC(=O)COCCOCCNC(=O)COCCOCCNC(=O)CC[C@H](NC(=O)CCCCCCCCCCCCCCCCC(=O)O)C(=O)O)C(=O)N[C@@H](CCC(N)=O)C(=O)N[C@@H](C)C(=O)N[C@@H](CC(=O)O)C(=O)N[C@@H](Cc1ccccc1)C(=O)N[C@H](C(=O)N[C@@H](CCC(=O)O)C(=O)N[C@@H](Cc1c[nH]c2ccccc12)C(=O)N[C@@H](CC(C)C)C(=O)N[C@@H](CC(C)C)C(=O)N[C@@H](C)C(=O)N[C@@H](CCC(N)=O)C(=O)N[C@@H](CCCNC(=N)N)C(=O)NCC(=O)O)C(C)C
B2: Compound No. 156 (peptide)
peptide: Y[Aib]EGTFISDYSIALDK[Aib]AQRK([AEEA-AEEA-γGlu-γGlu-C18 diacid])FVEWLLAQRG-OH
modifications: N-terminus assumed
SMILES: CC[C@H](C)[C@H](NC(=O)[C@H](CO)NC(=O)[C@H](Cc1ccc(O)cc1)NC(=O)[C@H](CC(=O)O)NC(=O)[C@H](CO)NC(=O)[C@@H](NC(=O)[C@H](Cc1ccccc1)NC(=O)[C@@H](NC(=O)CNC(=O)[C@H](CCC(=O)O)NC(=O)C(C)(C)NC(=O)[C@@H](N)Cc1ccc(O)cc1)[C@@H](C)O)[C@@H](C)CC)C(=O)N[C@@H](C)C(=O)N[C@@H](CC(C)C)C(=O)N[C@@H](CC(=O)O)C(=O)N[C@@H](CCCCN)C(=O)NC(C)(C)C(=O)N[C@@H](C)C(=O)N[C@@H](CCC(N)=O)C(=O)N[C@@H](CCCNC(=N)N)C(=O)N[C@@H](CCCCNC(=O)COCCOCCNC(=O)COCCOCCNC(=O)CC[C@H](NC(=O)CC[C@H](NC(=O)CCCCCCCCCCCCCCCCC(=O)O)C(=O)O)C(=O)O)C(=O)N[C@@H](Cc1ccccc1)C(=O)N[C@H](C(=O)N[C@@H](CCC(=O)O)C(=O)N[C@@H](Cc1c[nH]c2ccccc12)C(=O)N[C@@H](CC(C)C)C(=O)N[C@@H](CC(C)C)C(=O)N[C@@H](C)C(=O)N[C@@H](CCC(N)=O)C(=O)N[C@@H](CCCNC(=N)N)C(=O)NCC(=O)O)C(C)C
B3: Compound No. 167 (peptide)
peptide: H-Y[Aib]EGTFISDYSI[Aib]LDKAAQQK([AEEA-AEEA-γGlu-γGlu-C18 diacid])FVEWLLAQRG-OH
SMILES: CC[C@H](C)[C@H](NC(=O)[C@H](Cc1ccccc1)NC(=O)[C@@H](NC(=O)CNC(=O)[C@H](CCC(=O)O)NC(=O)C(C)(C)NC(=O)[C@@H](N)Cc1ccc(O)cc1)[C@@H](C)O)C(=O)N[C@@H](CO)C(=O)N[C@@H](CC(=O)O)C(=O)N[C@@H](Cc1ccc(O)cc1)C(=O)N[C@@H](CO)C(=O)N[C@H](C(=O)NC(C)(C)C(=O)N[C@@H](CC(C)C)C(=O)N[C@@H](CC(=O)O)C(=O)N[C@@H](CCCCN)C(=O)N[C@@H](C)C(=O)N[C@@H](C)C(=O)N[C@@H](CCC(N)=O)C(=O)N[C@@H](CCC(N)=O)C(=O)N[C@@H](CCCCNC(=O)COCCOCCNC(=O)COCCOCCNC(=O)CC[C@H](NC(=O)CC[C@H](NC(=O)CCCCCCCCCCCCCCCCC(=O)O)C(=O)O)C(=O)O)C(=O)N[C@@H](Cc1ccccc1)C(=O)N[C@H](C(=O)N[C@@H](CCC(=O)O)C(=O)N[C@@H](Cc1c[nH]c2ccccc12)C(=O)N[C@@H](CC(C)C)C(=O)N[C@@H](CC(C)C)C(=O)N[C@@H](C)C(=O)N[C@@H](CCC(N)=O)C(=O)N[C@@H](CCCNC(=N)N)C(=O)NCC(=O)O)C(C)C)[C@@H](C)CC
B4: Compound No. 163 (peptide)
peptide: H-Y[Aib]EGTFISDYSIALDK[Aib]K([AEEA-AEEA-γGlu-C18 diacid])QANFVEWLLAQRG-OH
SMILES: CC[C@H](C)[C@H](NC(=O)[C@H](CO)NC(=O)[C@H](Cc1ccc(O)cc1)NC(=O)[C@H](CC(=O)O)NC(=O)[C@H](CO)NC(=O)[C@@H](NC(=O)[C@H](Cc1ccccc1)NC(=O)[C@@H](NC(=O)CNC(=O)[C@H](CCC(=O)O)NC(=O)C(C)(C)NC(=O)[C@@H](N)Cc1ccc(O)cc1)[C@@H](C)O)[C@@H](C)CC)C(=O)N[C@@H](C)C(=O)N[C@@H](CC(C)C)C(=O)N[C@@H](CC(=O)O)C(=O)N[C@@H](CCCCN)C(=O)NC(C)(C)C(=O)N[C@@H](CCCCNC(=O)COCCOCCNC(=O)COCCOCCNC(=O)CC[C@H](NC(=O)CCCCCCCCCCCCCCCCC(=O)O)C(=O)O)C(=O)N[C@@H](CCC(N)=O)C(=O)N[C@@H](C)C(=O)N[C@@H](CC(N)=O)C(=O)N[C@@H](Cc1ccccc1)C(=O)N[C@H](C(=O)N[C@@H](CCC(=O)O)C(=O)N[C@@H](Cc1c[nH]c2ccccc12)C(=O)N[C@@H](CC(C)C)C(=O)N[C@@H](CC(C)C)C(=O)N[C@@H](C)C(=O)N[C@@H](CCC(N)=O)C(=O)N[C@@H](CCCNC(=N)N)C(=O)NCC(=O)O)C(C)C
B5: Compound No. 172 (peptide)
peptide: H-Y[Aib]EGTFISDYSI[Aib]LDKIK([AEEA-AEEA-γGlu-C18 diacid])QADFVNWLLAQRG-OH
SMILES: CC[C@H](C)[C@H](NC(=O)[C@H](CCCCN)NC(=O)[C@H](CC(=O)O)NC(=O)[C@H](CC(C)C)NC(=O)C(C)(C)NC(=O)[C@@H](NC(=O)[C@H](CO)NC(=O)[C@H](Cc1ccc(O)cc1)NC(=O)[C@H](CC(=O)O)NC(=O)[C@H](CO)NC(=O)[C@@H](NC(=O)[C@H](Cc1ccccc1)NC(=O)[C@@H](NC(=O)CNC(=O)[C@H](CCC(=O)O)NC(=O)C(C)(C)NC(=O)[C@@H](N)Cc1ccc(O)cc1)[C@@H](C)O)[C@@H](C)CC)[C@@H](C)CC)C(=O)N[C@@H](CCCCNC(=O)COCCOCCNC(=O)COCCOCCNC(=O)CC[C@H](NC(=O)CCCCCCCCCCCCCCCCC(=O)O)C(=O)O)C(=O)N[C@@H](CCC(N)=O)C(=O)N[C@@H](C)C(=O)N[C@@H](CC(=O)O)C(=O)N[C@@H](Cc1ccccc1)C(=O)N[C@H](C(=O)N[C@@H](CC(N)=O)C(=O)N[C@@H](Cc1c[nH]c2ccccc12)C(=O)N[C@@H](CC(C)C)C(=O)N[C@@H](CC(C)C)C(=O)N[C@@H](C)C(=O)N[C@@H](CCC(N)=O)C(=O)N[C@@H](CCCNC(=N)N)C(=O)NCC(=O)O)C(C)C

Each binder was assayed against full-length human GLP-1R with an N-terminal FLAG tag, overexpressed on HEK-293T cells (human, UniProt P43220 24-463) (assay: cell-based or functional assay).

Row | Binder | Human GLP1R cAMP EC50, HEK293T [nM]
1 | [NMeY][Aib]EGTFISDYSI[Aib]LDR[Aib]AQ[Aib]K([AEEA-AEEA-γGlu-γGlu-C20 diacid])FVNWLLAQRG-OH [Compound No. 159] | 11.7
2 | YXEGTFISDYSIAMDKIHQQDFVNWLLAQXGKKNDWKHNITQ (N-TER cell blank; Aib at 2; Km at 30 = Lys(2OEGgE-C18DA); C-terminus OH) [Compound No. 189] | 219
3 | YXEGTFISDYSIAXDKIXQADFVEWLLAQRG (N-terminus H; Aib at 2, 14; Km at 18 = Lys(2OEGgE-C18DA); C-terminus OH) [Compound No. 166] | 74.1
4 | H-Y[Aib]EGTFISDYSIALDKIK([AEEA-AEEA-γGlu-C18 diacid])Q[Aib]DFVEWLLAQRG-OH [Compound No. 160] | 537
5 | B1 | 589
6 | B2 | 10.2
7 | B3 | 38
8 | B4 | 219
9 | H-Y[Aib]EGTFISDYSIALDKAK([AEEA-AEEA-γGlu-C18 diacid])Q[Aib]DFVEWLLAQRG-OH [Compound No. 161] | 85.1
10 | YXEGTFISDYSIAXDKAAQQXFVEWLLAQRG (N-terminus H; Aib at 2, 14; Km at 21 = Lys(2OEGgEgE-C18DA); C-terminus OH) [Compound No. 157] | 437
11 | YXEGTFISDYSIAXDKAXQQDFVEWLLAQRG (N-terminus H; Aib at 2, 14; Km at 18 = Lys(2OEGgE-C18DA); C-terminus OH) [Compound No. 164] | > 1000
12 | YXEGTFISDYSIAXDKAAQAXFVEWLLAQRG (N-terminus H; Aib at 2, 14; Km at 21 = Lys(2OEGgEgE-C18DA); C-terminus OH) [Compound No. 158] | 339
13 | YXEGTFISDYSIAXDKAXQADFVEWLLAQRG (N-terminus H; Aib at 2, 14; Km at 18 = Lys(2OEGgE-C18DA); C-terminus OH) [Compound No. 165] | > 1000
14 | B5 | 93.3
15 | [NMeY][Aib]EGTFISDYSIALDR[Aib]AQ[Aib]K([AEEA-AEEA-γGlu-γGlu-C18 diacid])FVNWLLAQRG-OH [Compound No. 213] | 40.7

Each binder was assayed against T1, full-length human GIPR with an … (assay: cell-based or functional assay).

Row | Binder | Human GIPR cAMP EC50, HEK293T [nM]
16 | [NMeY][Aib]EGTFISDYSI[Aib]LDR[Aib]AQ[Aib]K([AEEA-AEEA-γGlu-γGlu-C20 diacid])FVNWLLAQRG-OH [Compound No. 159] | 0.0009
17 | YXEGTFISDYSIAXDKIXQADFVEWLLAQRG (N-terminus H; Aib at 2, 14; Km at 18 = Lys(2OEGgE-C18DA); C-terminus OH) [Compound No. 166] | 0.0005
18 | H-Y[Aib]EGTFISDYSIALDKIK([AEEA-AEEA-γGlu-C18 diacid])Q[Aib]DFVEWLLAQRG-OH [Compound No. 160] | 0.0003
19 | B1 | 0.0004
20 | B2 | 0.0013
21 | B3 | 0.0009
22 | B4 | 0.0002
23 | H-Y[Aib]EGTFISDYSIALDKAK([AEEA-AEEA-γGlu-C18 diacid])Q[Aib]DFVEWLLAQRG-OH [Compound No. 161] | 0.0001
24 | YXEGTFISDYSIAXDKAAQQXFVEWLLAQRG (N-terminus H; Aib at 2, 14; Km at 21 = Lys(2OEGgEgE-C18DA); C-terminus OH) [Compound No. 157] | 0.0003
25 | YXEGTFISDYSIAXDKAXQQDFVEWLLAQRG (N-terminus H; Aib at 2, 14; Km at 18 = Lys(2OEGgE-C18DA); C-terminus OH) [Compound No. 164] | 0.0002
26 | YXEGTFISDYSIAXDKAAQAXFVEWLLAQRG (N-terminus H; Aib at 2, 14; Km at 21 = Lys(2OEGgEgE-C18DA); C-terminus OH) [Compound No. 158] | 0.0005
27 | YXEGTFISDYSIAXDKAXQADFVEWLLAQRG (N-terminus H; Aib at 2, 14; Km at 18 = Lys(2OEGgE-C18DA); C-terminus OH) [Compound No. 165] | 0.0001
